Data taken from the supplement of paper PMC9170038.

Test system: MS2 coat protein
Experiment: apparent KD of MS2 coat protein; higher = weaker reporter binding
Conditions: Eterna round: R107
Description: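 RNA-MaP round R107: designed RNA switches with theophylline, tryptophan, arginine or FMN aptamers are transcribed on-chip within common flanks. They are titrated with SNAP-549-labelled MS2 coat protein in RNA-MaP buffer (100 mM Tris pH 7.5, 80 mM KCl, 4 mM MgCl2), without ligand or with the indicated ligand. Median apparent KD per design.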

[1] = input ligand: theophylline 20 uM
[2] = input ligand: theophylline 2 mM
[3] = input ligand: tryptophan 2.4 mM

## AGGUGACAUGAGGAUCACCCAUGUGGCUUACGAGGACCGGUACGGCCGCCACUCGGUGUGACCUCCGCAUUCACAUAAUAAUCUU [Rilala]
Input ligand: arginine 13.2 mM
  apparent KD of MS2 coat protein: 37.4 nM
[1]
  apparent KD of MS2 coat protein: 131 nM
[2]
  apparent KD of MS2 coat protein: 126 nM

## AGUCCUCUGUACCCUGAUGCCCUCACUUUACGAGGACCGGUACGGCCGCCACUCGAAUCCCAACAUGAGGAUCACCCAUGUCGAC [theeternabot_exclusion_MS2_Trp_A_26]
Input ligand: arginine 13.2 mM
  apparent KD of MS2 coat protein: 30 nM
[1]
  apparent KD of MS2 coat protein: 40 nM
[2]
  apparent KD of MS2 coat protein: 47 nM

## AGUCUCAGUGGAAGGAGCGUCGCGACUGCUACAUGAGGAUCACCCAUGUCGCCUUGAGCGCGACAGGUAGGUCGCCACGGUAGGC [Erraraorle]
Input ligand: arginine 13.2 mM
  apparent KD of MS2 coat protein: 14.1 nM
Input ligand: none
  apparent KD of MS2 coat protein: 17.5 nM
[1]
  apparent KD of MS2 coat protein: 29.6 nM
[2]
  apparent KD of MS2 coat protein: 20.8 nM
[3]
  apparent KD of MS2 coat protein: 18.2 nM

## AGUGUUAUAACUGAUACCAGACUUUUGCUUAUACAUGAGGAUCACCCAUGUAAAAUGGUUGUCCCUUGGCAGCAGAAAAUACACA [JR_SSTheophyB_Sub007]
Input ligand: arginine 13.2 mM
  apparent KD of MS2 coat protein: 81.6 nM
[1]
  apparent KD of MS2 coat protein: 104 nM
[3]
  apparent KD of MS2 coat protein: 134 nM

## AGUGUUAUAACUGAUACCAGACUUUUGCUUAUACAUGAGGAUCACCCAUGUAAAAUGGUUGUCCCUUGGCAGCAGAAGUUACACA [JR_SSTheophyB_Sub008]
Input ligand: arginine 13.2 mM
  apparent KD of MS2 coat protein: 104 nM
[1]
  apparent KD of MS2 coat protein: 96.1 nM
[3]
  apparent KD of MS2 coat protein: 58.6 nM

## AGUUACUCGAACAUGGUUGACGAGUGGCAACGAGGACCGGUACGGCCGCCACUCGAAUAAACAUGAGGAUCACCCAUGUACAAAU [T''-M'-T'-T-MS2 - Design 10.b]
Input ligand: arginine 13.2 mM
  apparent KD of MS2 coat protein: 61.9 nM
[1]
  apparent KD of MS2 coat protein: 148 nM
[2]
  apparent KD of MS2 coat protein: 160 nM

## AUAACAUGAGGAUCACCCAUGUAAGCAGAUACCAGCUAGGAAACUAGCCCUUGGCAGCUGCAAGGUGAUCCUAGGUAUCUGCAAU [(M1)-(M2)-(T1)-(T2)-(M)'-(T)'_Design6]
Input ligand: arginine 13.2 mM
  apparent KD of MS2 coat protein: 30.4 nM
Input ligand: none
  apparent KD of MS2 coat protein: 24.7 nM
[1]
  apparent KD of MS2 coat protein: 49.3 nM
[2]
  apparent KD of MS2 coat protein: 52.2 nM
[3]
  apparent KD of MS2 coat protein: 25.9 nM

## AUAACAUGAGGAUCACCCAUGUAAGCAGAUACCAGCUAGGAAACUAGCCCUUGGCAGCUGCAAUCCUCAUGUAUUGCAGCUGCAA [(M1)-(M2)-(T1)-(T2)-(M)'-(T)'_Design1]
Input ligand: arginine 13.2 mM
  apparent KD of MS2 coat protein: 21.5 nM
[1]
  apparent KD of MS2 coat protein: 26.2 nM
[3]
  apparent KD of MS2 coat protein: 15.3 nM

## AUAACCCUUGACUAAAACACUAAAUCAGUUCGAGGACCGGUACGGCCGCCACUCGUGUCAAGACAUGAGGAUCACCCAUGUACCU [Isbe]
Input ligand: arginine 13.2 mM
  apparent KD of MS2 coat protein: 32 nM
[1]
  apparent KD of MS2 coat protein: 45.4 nM
[2]
  apparent KD of MS2 coat protein: 44.3 nM

## AUAAUAAUCAUGGGUGAAGGUCCUCGCAAACGAGGACCGGUACGGCCGCCACUCGAACAUGAGGAUCACCCAUGUGUGAGGACCU [M' - T' - T - MS2 - T'' Design 2]
Input ligand: arginine 13.2 mM
  apparent KD of MS2 coat protein: 24.9 nM
[1]
  apparent KD of MS2 coat protein: 59.7 nM
[2]
  apparent KD of MS2 coat protein: 74.1 nM

## AUAAUAUAGACGGCCGCCACUAUAAACAUGAGGAACAUGAGGAUCACCCAUGUAUGAGGAUCACCUAGGACCGGGUCAUAUAUUA [AstrosExyTryB#2]
Input ligand: arginine 13.2 mM
  apparent KD of MS2 coat protein: 39.3 nM
[1]
  apparent KD of MS2 coat protein: 79.8 nM
[2]
  apparent KD of MS2 coat protein: 62.4 nM

## AUACAUGAGGAUCACCCAUGUAUAGUUGAAGGAGCGACCAGAGGGUCAGGUAGGUCGCAGCGCAUGAGGUAAGCCCAUGUAUGCU [#1 Exclusion - Arginine A Attempt #16 (Inspired by Pi)]
Input ligand: arginine 13.2 mM
  apparent KD of MS2 coat protein: 22.7 nM
Input ligand: none
  apparent KD of MS2 coat protein: 22.8 nM
[1]
  apparent KD of MS2 coat protein: 44 nM
[2]
  apparent KD of MS2 coat protein: 70 nM
[3]
  apparent KD of MS2 coat protein: 17.2 nM

## AUACAUGAGGAUCACCCAUGUCUUACGGAAGGAGCGAUCAAGAGAUCAGGUAGGUCGCCGUACAUGAGGAUCACCCAUGUAGGCG [EAA NP+V+V2 #9 DOUBLE]
Input ligand: arginine 13.2 mM
  apparent KD of MS2 coat protein: 19.5 nM
Input ligand: none
  apparent KD of MS2 coat protein: 32.3 nM
[1]
  apparent KD of MS2 coat protein: 33.4 nM
[2]
  apparent KD of MS2 coat protein: 35.7 nM
[3]
  apparent KD of MS2 coat protein: 31.3 nM

## AUACAUGAGGAUCACCCAUGUUAUAGUGAAGGAGCGACAUUUAGGUCAGGUAGGUCGCACUAUUGAAUUAUUAUUCUCAGUUCUU [JR_ExcArginiA_Sub019]
Input ligand: arginine 13.2 mM
  apparent KD of MS2 coat protein: 14.2 nM
Input ligand: none
  apparent KD of MS2 coat protein: 13.2 nM
[1]
  apparent KD of MS2 coat protein: 21.8 nM
[2]
  apparent KD of MS2 coat protein: 13.7 nM
[3]
  apparent KD of MS2 coat protein: 15.2 nM

## AUACAUGAGGAUCACCCAUGUUAUAGUGAAGGAGCGACAUUUAUGUCAGGUAGGUCGCACUGUUGUUUAAUGAUUCUUGGAUCUU [#20 Exclusion - Arginine A]
Input ligand: arginine 13.2 mM
  apparent KD of MS2 coat protein: 16 nM
Input ligand: none
  apparent KD of MS2 coat protein: 13.3 nM
[1]
  apparent KD of MS2 coat protein: 18.9 nM
[2]
  apparent KD of MS2 coat protein: 14.1 nM
[3]
  apparent KD of MS2 coat protein: 15.1 nM

## AUAGUCUUGAGUGAUACCAGACUACAUGAGGAUCACCCAUGUUUCUUUUGGUUAUCAUGUGUCCCUUGGCAGCACGCAUGUAUAG [JR_ExcTheophyB_Sub014]
Input ligand: arginine 13.2 mM
  apparent KD of MS2 coat protein: 17.5 nM
[1]
  apparent KD of MS2 coat protein: 28 nM
[3]
  apparent KD of MS2 coat protein: 12.6 nM

## AUAUGGCGAGAUGAUACCAGACACAUGAGGAUCACCCAUGUUGAUGGUAAGUCUGCAUAUGUCCCUUGGCAGCAUAGCGACAUAU [X-TheoB-ms2@23]
Input ligand: arginine 13.2 mM
  apparent KD of MS2 coat protein: 8.63 nM
[1]
  apparent KD of MS2 coat protein: 11.9 nM
[3]
  apparent KD of MS2 coat protein: 8.34 nM

## AUAUUAAAGAGUGAUACCAGACUACAUGAGGAUCACCCAUGUUACAUUUAAAUAUCAUUUGUCCCUUGGCAGCACAUUAAGUACA [JR_Nu_ExcTheophyB_Sub022]
Input ligand: arginine 13.2 mM
  apparent KD of MS2 coat protein: 20.9 nM
[1]
  apparent KD of MS2 coat protein: 22.1 nM
[3]
  apparent KD of MS2 coat protein: 17.5 nM

## AUCAUGUAAUCAGAUACCAGACAUCUUUUAAUACAUAUUACAUGAGGAUCACCCAUGUUGGUCCCUUGGCAGCUGAAAUAUUUUU [JR_Nu_SSTheophyB_Sub027]
Input ligand: arginine 13.2 mM
  apparent KD of MS2 coat protein: 128 nM
[1]
  apparent KD of MS2 coat protein: 191 nM
[3]
  apparent KD of MS2 coat protein: 246 nM

## AUCGGCAGAAAAGAUACCAGAGUAAUACACAACAUGAGGAUCACCCAUGUACGGACAAUCCUCCCUUGGCAGCUUGUAACAGUAU [theeternabot_sameState_MS2_Theo_B_32]
Input ligand: arginine 13.2 mM
  apparent KD of MS2 coat protein: 37.4 nM
[1]
  apparent KD of MS2 coat protein: 63.8 nM
[3]
  apparent KD of MS2 coat protein: 48 nM

## AUCGUACCUGAUGAUACCAGCAAGUGAUCAUAACAUGAGGAUCACCCAUGUAAUCAGUGAUGCCCUUGGCAGCAUAAUCGAUACA [Same State - Theophylline B (Freestyle 4)]
Input ligand: arginine 13.2 mM
  apparent KD of MS2 coat protein: 91.6 nM
[1]
  apparent KD of MS2 coat protein: 204 nM
[3]
  apparent KD of MS2 coat protein: 164 nM

## AUCGUACCUGAUGAUACCAGCAUGUGCUCGUAACAUGAGGAUCACCCAUGUGAUCAGUGAUGCCCUUGGCAGCAUGAUCGGUGCA [Same State - Theophylline B (Freestyle 18)]
Input ligand: arginine 13.2 mM
  apparent KD of MS2 coat protein: 94 nM
[1]
  apparent KD of MS2 coat protein: 134 nM
[3]
  apparent KD of MS2 coat protein: 167 nM

## AUGCAUAGCCGAAGGAGCGCAGUAGGAUGACAUGAGGAUCACCCAUGUGUGUGAUGUGGAUUGCAGGUAGGUCGCGGAGUGGUAU [Exclusion - Arginine B (Freestyle 5)]
Input ligand: arginine 13.2 mM
  apparent KD of MS2 coat protein: 47 nM
Input ligand: none
  apparent KD of MS2 coat protein: 119 nM
[1]
  apparent KD of MS2 coat protein: 128 nM
[2]
  apparent KD of MS2 coat protein: 119 nM
[3]
  apparent KD of MS2 coat protein: 58 nM

## AUGGCGUUGGUGUAGCUGUGAAAUGGCGAUACCAGCGUGGAAACACGCCCUUGGCAGCGCCAAAACAUGAGGAUCACCCAUGUUA [Hradec]
Input ligand: arginine 13.2 mM
  apparent KD of MS2 coat protein: 16.6 nM
[1]
  apparent KD of MS2 coat protein: 45.1 nM
[3]
  apparent KD of MS2 coat protein: 18.1 nM

## AUGGUAGGACAGCACAUAUAAGCUUGUGAUACCAGCUAGAAAACUAGCCCUUGGCAGCACAUUACAUGAGGAUCACCCAUGUCCC [EThA NP+V+V2 #1]
Input ligand: arginine 13.2 mM
  apparent KD of MS2 coat protein: 44.1 nM
[1]
  apparent KD of MS2 coat protein: 68.6 nM
[3]
  apparent KD of MS2 coat protein: 50 nM

## AUGUCAUUGGUGUAGCUGUGAAAUGGCGAUACCAGCGUGGAAACACGCCCUUGGCAGCGCCAAAACAUGAGGAUCACCCAUGUUA [Pardubice]
Input ligand: arginine 13.2 mM
  apparent KD of MS2 coat protein: 36.2 nM
[1]
  apparent KD of MS2 coat protein: 135 nM
[3]
  apparent KD of MS2 coat protein: 80 nM

## AUUAAUAAUAUGUAGACGGCGGAGAAGAGACGAGGACCGGUACGGCCGCCACUCGUGUUAGUUAACAUGAGGAUCACCCAUGUUA [#09 Tryptophan A Same State]
Input ligand: arginine 13.2 mM
  apparent KD of MS2 coat protein: 9.55 nM
Input ligand: none
  apparent KD of MS2 coat protein: 11.8 nM
[1]
  apparent KD of MS2 coat protein: 17.5 nM
[2]
  apparent KD of MS2 coat protein: 12.6 nM
[3]
  apparent KD of MS2 coat protein: 11.9 nM

## AUUCAUGGAAACAUGACAUACAUAUCCGGUCGAGGACCGGUACGGCCGCCACUCGUUUGGAGGCACAUGAGGAUCACCCAUGUUA [SS Tryp A #8]
Input ligand: arginine 13.2 mM
  apparent KD of MS2 coat protein: 21.3 nM
[1]
  apparent KD of MS2 coat protein: 34.4 nM
[2]
  apparent KD of MS2 coat protein: 25.9 nM
